From PMC8524856 (Biochemistry, 2021)

Experiments:
[1] = tested on: N[C@@H](COP(=O)(O)O)C(=O)O; assay: purified protein; conditions: 100 mM HEPES/K+, pH 8.0, 25 °C, 250 μM PLP
[2] = tested on: HS19.10; conditions: 2.0 mM L-glutamate, 250 μM PLP, 50 mM HEPES/K+, pH 8.0, 25 °C; DHAP varied

| Compound | kcat [1] | Km [2] |
| --- | --- | --- |
| Cj1436 (Campylobacter jejuni subsp. jejuni NCTC 11168 = ATCC 700819) | 0.21 ± 0.02 s⁻¹ | – |
| O=C(CO)COP(=O)(O)O [DHAP] | – | 41 ± 2 µM |
